Results reported in US20230107004, “[…] ELECTROCHEMICAL BIOSENSOR” (THE GOVERNING COUNCIL OF THE UNIVERSITY OF TORONTO, published 2023).

Target: SARS-CoV-2 spike (S/S1) protein (SARS-CoV-2, UniProt P0DTC2 P0DTC2:14-685)

B1: CoV2-RBD-4C aptamer-P2 hybridized to P1 (iMP) (mixed)
DNA 1: ATCCAGAGTGACGCAGCATTTCATCGGGTCCAAAAGGGGCTGCTCGGGATTGCGGATATGGACACGTTTTTCTTATTAGATACAATAGCTGGTA
DNA 2: TACCAGCTATTGTATCTAATAAGA
modifications: P1 strand 5'-thiol-MC6 on gold electrode, 3'-NH2 conjugated to ferrocene
- binding result: binds
